Paper doi:10.1101/2025.07.27.667015v3 (biorxiv, 2025)

Columns and labels:
[1] = molecular target: yMGL (Yarrowia lipolytica, UniProt Q6CB42, S333A); test: OpenSPR, protein immobilised on NTA chip; format: binding
[2] = molecular target: yMGL (Yarrowia lipolytica, UniProt Q6CB42); test: OpenSPR, protein immobilised on NTA chip; format: binding
[3] = test system: CSCC[C@H](N)C(=O)O; test: purified protein; settings: saturating PLP (5 μM), 50 mM Tris-HCl pH 8.0, 20 °C

Compound | Kd [1] | Kd [2] | Km [3] | kcat [3]
Cc1ncc(COP(=O)(O)O)c(C=O)c1O [PLP] | 942 µM | 33.1 µM |  | 
yMGL-ΔCTD (Yarrowia lipolytica CLIB122; DEL253-380) |  |  | 750 ± 10 µM | 0.04 ± 0.00 s⁻¹
yMGL (Yarrowia lipolytica CLIB122) |  |  | 1500 ± 10 µM | 0.06 ± 0.00 s⁻¹
